Target: T1, human GIP receptor, stably transfected in Chinese hamster lung (CHL) fibroblast cells (human, UniProt P48546 22-466)
T1 sequence (looked up): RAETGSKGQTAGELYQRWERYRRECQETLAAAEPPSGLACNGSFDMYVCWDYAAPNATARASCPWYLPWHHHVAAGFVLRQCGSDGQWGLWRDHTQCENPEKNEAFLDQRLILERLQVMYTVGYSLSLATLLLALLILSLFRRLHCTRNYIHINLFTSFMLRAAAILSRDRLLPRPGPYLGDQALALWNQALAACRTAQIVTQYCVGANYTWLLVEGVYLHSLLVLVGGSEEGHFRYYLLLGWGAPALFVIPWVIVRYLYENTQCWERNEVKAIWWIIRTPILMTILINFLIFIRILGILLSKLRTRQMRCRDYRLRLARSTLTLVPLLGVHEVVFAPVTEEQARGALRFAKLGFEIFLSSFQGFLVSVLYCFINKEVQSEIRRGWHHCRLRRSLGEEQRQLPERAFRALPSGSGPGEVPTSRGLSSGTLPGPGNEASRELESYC
Assay: cell-based or functional assay

YAPGTFISDYSIAMDKIHQQDFVNWLLAQKGKKNDWKHNITQ [(Pro^3)GIP]
IC50 of inhibition of GIP-induced cAMP formation (GIP receptor transfected CHL fibroblasts, native GIP 10^-7 M): 2600 nM

From US20070167370A1 (UUTECH, published 2007)
